Source: PMC7256013, “Preclinical evaluation of cationic DOTA-triarginine-lipid conjugates for theranostic liquid brachytherapy” (Nanotheranostics, 2020)
Residues, ends and D or L forms follow the SMILES beside them. *: point of attachment. DOTA = O=C(O)CN1CCN(CC(=O)O)CCN(CC(=O)*)CCN(CC(=O)O)CC1; Stearoyl = CCCCCCCCCCCCCCCCCC(=O)*; Palmitoyl = CCCCCCCCCCCCCCCC(=O)*

Columns and labels:
CT26 cells = test: Cytotoxicity, MTS assay; format: cell-based, murine; settings: 4000 cells/well, 24 h incubation with compound, then 48 h without, absorbance 490 nm
Description: CT26 (murine colon carcinoma) was purchased from ATTC (Rockville) and cultured in DMEM medium supplemented with 10% fetal calf serum and pen-strep (Invitrogen Inc) at 37 °C and 5% CO2 in a humidified atmosphere. A commercial MTS assay was used to assess cytotoxicity. (Promega, CellTiter 96® AQueous One Solution Cell Proliferation Assay).
Cells were plated onto 96 well plates at a density of 4000 cells/well the day before the start of experiment. The original culture medium was replaced by medium containing increasing amounts of the indicated agents. After 24 h incubation with D3R-C16 or D3R-C18, the medium was removed and the cells were further incubated for another 48 hours. To measure metabolically active cells, 100 µL of MTS solution was added to the wells and incubated until sufficient amount of color was developed and within the linear range. The absorbance was measured at 490 nm using a microplate reader (Sunrise, Tecan).

[1] = Critical micelle concentration by surface tension measurement (Du Noüy); format: physicochemical; settings: 0.49-250 µM
Description: An Ez-pi+ surface tensiometer, with dyneprobe (diameter: 0.51 mm) and polypropylene sample cuvettes were purchased from Kibron to measure the surface tension.
(§1) D3R-C16 or D3R-C18 was dispersed in ISO-HEPES-NaCl or ISO-HEPES-Sucrose for a final concentration of 250 μM as stock solutions. Sample series were prepared by diluting the stock solutions with ISO-HEPES-NaCl or ISO-HEPES-Sucrose into concentrations of 125, 62.5, 31.25, 15.63, 7.81, 3.91, 1.95, 0.98 and 0.49 μM. The surface tension of the sample was measured by the Du Noüy method with a platinum probe. For each sample, the measurements were repeated until three consecutive measurements varied with less than 1 mN/m between them. Based on the critical micelle concentration of D3R-C18, a micellar dispersion of D3R-C18 in ISO-HEPES-Sucrose (2.0 mM) was prepared. The zeta potential of the D3R-C18 micelles was measured on a Zetasizer (Malvern).

[2] = Micelle size (DLS) and zeta potential; format: physicochemical; settings: for PDI of micelles / average size of micelles (Z-average): 2.0 mM in ISO-HEPES, DLS; for average size of micelles (Z-average): broad distribution
Description: Liposomes were prepared using a mini-extruder (Avanti Polar Lipids) or a LIPEX Thermobarrel Pressure Extruder (10 mL, Northern Lipids). The hydrodynamic size and zeta potential of liposomes were measured by dynamic light scattering (DLS) on a Zetasizer (Malvern). Intensity weighted lognormal mean sizes are reported, unless otherwise noted. Sizes were measured in ISO-HEPES-NaCl and zeta potentials were measured in ISO-HEPES-Sucrose. Lipid concentrations were measured by ICP-MS (Thermo Scientifc, iCAP Q) by quantifying the phosphorous content of liposome samples against an internal standard of gallium (10 ppb). Sephadex G-25 PD-10 columns (8.3 mL bed volume) were purchased from GE Healthcare.
as §1

[3] = mouse, in vivo
Description: (§2) Mice were injected intratumorally with ^64Cu-compounds in concentrations of 40 MBq/mL. During the scan procedures, mice were anaesthetized using 3-4 % sevoflurane (Abbott Scandinavia AB, Sweden) mixed with 35% O2 and 65% medical grade air and placed on heating pads. Two mice were positioned side-by-side, separated by a 6 mm polystyrene block for PET/CT imaging using Inveon® small animal PET/CT system with CT based PET image attenuation (Siemens Medical Systems, Malvern, PA, USA). The protocol included a 12-minute PET scan, followed by a CT scan. Mice were fixed on a bed inside the scanner with the syringe placed and the needle fixed centrally in the tumor and ready for injection. Upon initiation of the first scan, intratumoral injections were done manually over 30 seconds, to investigate the initial dynamics of the tracer diffusion. Following this, two further scans were included; at six hours (5 minutes scan time) and 24 hours (12 minutes scan time) after injection. Reconstruction of the PET scans were performed using maximum a posteriori (MAP) reconstruction algorithm (voxel size: 0.815 x 0.815 x 0.796 mm; resolution (FWHM) 1.2 mm). The injection scan was reconstructed in 4 x 30 second and 10 x 60 second time frames to observe the dynamics of tracer diffusion. The two last time points were reconstructed in a single time frame.
(§3) Image analysis was performed using commercially available Inveon software (Siemens Medical Systems, Malvern, PA, USA). Regions of interest (ROIs) were manually drawn based on the co-registered PET/CT images. The following ROIs were constructed; tumors (complete volume delineated), liver, spleen, kidney, bladder, and blood. Blood activity was estimated from a constructed ROI covering the left ventricular lumen of the heart. ROIs in the left ventricle and abdominal aorta were subsequently segmented to only include the voxels displaying above 80% of maximum activity with the original ROI. From the obtained uptake values all data was calculated into %ID/g for each organ and as %ID in tumors by adjusting for CT based tumor volume. Furthermore, voxel values from tumor ROIs were used to generate histograms for substance diffusion over time in the tumor region.
(§4) Note that the first point in each plot represents the percentage of voxels with radioactivity concentrations lower than 1.6 %ID/g. These voxels are considered empty, meaning that the corresponding tumor region is non-radioactive.

in vivo [4] = settings: female, Balb/C, mouse, total radioactivity
Description: CT26 wildtype cells (murine colon carcinoma, ATCC, Virginia, US) were cultured RPMI (Roswell Park Memorial Institute) medium supplemented with 10 % heat-inactivated Fetal Calf Serum (FCS) and 1 % Penicillin-Streptomycin (Invitrogen, Carlsbad, CA., US) retained in 5 % CO2 incubator at 37 °C. Immunocompetent female Balb/C mice (Charles River, Wilmington, MA., USA) were inoculated with tumor cells after one week of adaptation. All 20 mice included were inoculated subcutaneously with 3 x 10^5 CT26 wildtype cells in 100 µL medium on the right flank and hereafter monitored for weight and tumor size continuously for study purposes and to monitor the health of the mice. Tumor sizes were calculated from the formula of 0.52 x lenght^2 x width, as measured by external caliper. Animals were included in the study when tumors were approximately 400 mm^3.
as §2, §3

in vivo [5] = settings: female, Balb/C, mouse, total radioactivity; remark: listed apart in the source
Description: as §2, §3, §4

[6] = Partitioning of radiolabeled surfactant into liposomes (SEC, PD-10); format: physicochemical; settings: 37 °C, 60 min, for D3R-C18 at lipid 0.36 and 0.72 mM
Description: Three different liposomes types were prepared: (1) POPC only, (2) POPC-POPG (9:1), (3) commercially available stealth lipid mixture (see above). POPC or the POPC-POPG mixture was freeze- dried from tert-butanol:water (9:1). The resulting lyophilizate or the stealth lipid mixture (187.5 mg) was then hydrated with ISO-HEPES-NaCl (5.0 mL) at 65 ℃ for 60 minutes by magnetic stirring. This was followed by sizing through a mini-extruder with a cut-off size of 100 nm. Size, PDI and zeta potential of all three preparations were measured (Table 1). The liposomes were diluted to lipid concentrations of 0.4, 1.0 and 4.0 mM for partitioning studies.
A dispersion of ^64Cu-D3R-C16 (200 μM) in ISO-HEPES-NaCl (100 µL) was added to POPC liposomes (900 µL, 0.4 mM). The resulting mixture was magnetically stirred at 37 ℃. Mixtures were separated by size-exclusion chromatography (SEC) at 10, 30, 60, 120 and 180 minutes after addition. An aliquot (100 µL) was applied to a PD-10 cartridge and eluted with ISO-HEPES-NaCl. […] The radioactivities of the two collected fractions and the column were measured by dose calibrator. […] The partitioning of the radiolabeled constructs into liposomes was calculated as the ratio of the radioactivity in the liposomal fraction to the total radioactivity of the liposomal fraction plus the column. […] The mixtures were analyzed by SEC by applying 200 µL to a PD-10 cartridge (see above). […]

[7] = in ISO-HEPES-NaCl (10 mM HEPES, 150 mM NaCl, pH 7.4)
[8] = in ISO-HEPES-Sucrose (10 mM HEPES, 300 mM sucrose, pH 7.4)

CCCCCCCCCCCCCCCCCC(=O)N[C@@H](CCCNC(=N)N)C(=O)N[C@@H](CCCNC(=N)N)C(=O)N[C@@H](CCCNC(=N)N)C(=O)N[C@@H](CCCCNC(=O)CN1CCN(CC(=O)O)CCN(CC(=O)O)CCN(CC(=O)O)CC1)C(N)=O [D3R-C18] (Stearoyl-RRRK(DOTA)-NH2)
median lethal concentration (LC50) (CT26 cells): above 100 µM
CMC [1, 7]: about 10 µM
CMC [1, 8]: above 100 µM
PDI of micelles [2]: 0.3
average size of micelles (Z-average) [2]: 10 nm
zeta potential of micelles ([2]; 2.0 mM micellar dispersion in ISO-HEPES-Sucrose, Zetasizer): 20.7 ± 0.5 mV

CCCCCCCCCCCCCCCCCC(=O)N[C@@H](CCCNC(=N)N)C(=O)N[C@@H](CCCNC(=N)N)C(=O)N[C@@H](CCCNC(=N)N)C(=O)N[C@@H](CCCCNC(=O)CN1CCN(CC(=O)O)CCN(CC(=O)O)CCN(CC(=O)O)CC1)C(N)=O [64Cu-D3R-C18, metal not drawn] (Stearoyl-RRRK(DOTA)-NH2)
range of voxel radioactivities in tumor [3]: 0-500 %ID/g
tissue uptake at 15 s (in vivo [4]): 80 ± 66 %ID/g
tissue uptake at 45 s (in vivo [4]): 171 ± 96 %ID/g
tissue uptake at 75 s (in vivo [4]): 230 ± 58 %ID/g
tissue uptake at 105 s (in vivo [4]): 241 ± 63 %ID/g
tissue uptake at 2.5 min (in vivo [4]): 241 ± 66 %ID/g
tissue uptake at 3.5 min (in vivo [4]): 240 ± 68 %ID/g
tissue uptake at 0.075 h (in vivo [4]): 241 ± 69 %ID/g
tissue uptake at 5.5 min (in vivo [4]): 240 ± 70 %ID/g
tissue uptake at 6.5 min (in vivo [4]): 240 ± 70 %ID/g
tissue uptake at 0.125 h (in vivo [4]): 240 ± 70 %ID/g
tissue uptake at 8.5 min (in vivo [4]): 239 ± 69 %ID/g
tissue uptake at 9.5 min (in vivo [4]): 238 ± 70 %ID/g
tissue uptake at 0.175 h (in vivo [4]): 238 ± 70 %ID/g
tissue uptake at 11.5 min (in vivo [4]): 236 ± 70 %ID/g
tissue uptake at 6 h (in vivo [4]): 49 ± 17 %ID/g
tissue uptake at 24 h (in vivo [4]): 23 ± 7 %ID/g
tissue uptake dose at 0.2 h (in vivo [4]): 85 ± 11 %ID
tissue uptake at 5 min (in vivo [5]): < 10 %ID/g

CCCCCCCCCCCCCCCC(=O)N[C@@H](CCCNC(=N)N)C(=O)N[C@@H](CCCNC(=N)N)C(=O)N[C@@H](CCCNC(=N)N)C(=O)N[C@@H](CCCCNC(=O)CN1CCN(CC(=O)O)CCN(CC(=O)O)CCN(CC(=O)O)CC1)C(N)=O [D3R-C16] (Palmitoyl-RRRK(DOTA)-NH2)
median lethal concentration (LC50) (CT26 cells): above 100 µM
CMC [1, 7]: about 40 µM
CMC [1, 8]: above 100 µM
PDI of micelles [2]: 0.3
average size of micelles (Z-average) [2]: 10 nm
stealth liposome partitioning, 177Lu label compared with 64Cu label [6]: no significant difference
